Test results published in patent US8119766 (UNIVERSITY OF IOWA RESEARCH FOUNDATION, dated 2012).

Experiments:
[1] = target: LARGE-modified DGFc5 (human); experiment: solid-phase laminin-1 binding assay, nonlinear regression (FIG. 9C)
[2] = target: full-length α-DG-IgG Fc fusion protein (DGFc5), secreted form from conditioned medium (human); experiment: as above
[3] = target: full-length α-DG-IgG Fc fusion protein (DGFc5), secreted form from conditioned medium (human); experiment: solid-phase binding of laminin-1, nonlinear regression (FIG. 8C)
laminin-1 [4] = target: T1, laminin-1 (mouse, UniProt P19137 25-3083; P02469 22-1786; P02468 34-1607); experiment: as above
T1 construct: also called mouse EHS laminin-1; biotinylated laminin-1

laminin-1 [5] = target: T1, laminin-1; experiment: laminin overlay
laminin-1 [6] = target: T1, laminin-1; experiment: laminin-1 overlay, with LARGE co-expression

laminin-1 (from UniProt P19137 25-3083; P02469 22-1786; P02468 34-1607) (ligand)
Kd [1]: 1.6 nM | Kd [2]: 3.1 nM | Kd [3]: 1.1 nM

B1: native α-DG (receptor, rabbit, UniProt Q28685 30-653, looked up)
chain: HWPSEPSEAVRDWENQLEASMHSVLSDLHEALPTVVGIPDGTAVVGRSFRVTIPTDLIGSSGEVIKVSTAGKEVLPSWLHWDPQSHTLEGLPLDTDKGVHYISVSAAQLDANGSHIPQTSSVFSIEVYPEDHSEPQSVRAASPDLGEAAASACAAEEPVTVLTVILDADLTKMTPKQRIDLLHRMQSFSEVELHNMKLVPVVNNRLFDMSAFMAGPGNAKKVVENGALLSWKLGCSLNQNSVPDIRGVEAPAREGTMSAQLGYPVVGWHIANKKPPLPKRIRRQIHATPTPVTAIGPPTTAIQEPPSRIVPTPTSPAIAPPTETMAPPVRDPVPGKPTVTTRTRGAIIQTPTLGPIQPTRVSDAGTVVSGQIRATVTIPGYVEPTAVATPPTTTTKKPRVSTPKPATPSTDSSATTTRRPTKKPRTPRPVPRVTTKAPITRLETASPPTRIRTTTSGVPRGGEPNQRPELKNHIDRVDAWVGTYFEVKIPSDTFYDKEDTTTDKLKLTLKLREQQLVGEKSWVQFNSNSQLMYGLPDSSHVGKHEYFMHATDKGGLSAVDAFEIHVHKRPQGDKAPARFKAKFVGDPAPVVNDIHKKIALVKKLAFAFGDRNCSTVTLQNITRG
modifications: native glycosylation; sites not stated
notes: mature; also called native α-dystroglycan purified from rabbit skeletal muscle
Kd (laminin-1 [4]): 0.4 nM

B2: DGFc2 prepared from cell lysate (Fc fusion, UniProt Q28685 30-316, looked up)
chain: HWPSEPSEAVRDWENQLEASMHSVLSDLHEALPTVVGIPDGTAVVGRSFRVTIPTDLIGSSGEVIKVSTAGKEVLPSWLHWDPQSHTLEGLPLDTDKGVHYISVSAAQLDANGSHIPQTSSVFSIEVYPEDHSEPQSVRAASPDLGEAAASACAAEEPVTVLTVILDADLTKMTPKQRIDLLHRMQSFSEVELHNMKLVPVVNNRLFDMSAFMAGPGNAKKVVENGALLSWKLGCSLNQNSVPDIRGVEAPAREGTMSAQLGYPVVGWHIANKKPPLPKRIRRQIHA
notes: domain: N-terminal domain; About 65 kDa; also called DGFc2 (cell lysate); not shown: IgG Fc portion
binding result (laminin-1 [5]): no binding

B3: secreted DGFc2 from cells cultured with CMK (Fc fusion, UniProt Q28685 30-316, looked up)
chain: B2 chain
notes: domain: N-terminal domain; Migrated at the same size (~65 kDa) as DGFc2 from cell lysate; also called DGFc2 (CMK-treated, secreted); not shown: IgG Fc portion
binding result (laminin-1 [5]): no binding

B4: DGFc6, secreted form (Fc fusion, UniProt Q28685 317-653, looked up)
chain: TPTPVTAIGPPTTAIQEPPSRIVPTPTSPAIAPPTETMAPPVRDPVPGKPTVTTRTRGAIIQTPTLGPIQPTRVSDAGTVVSGQIRATVTIPGYVEPTAVATPPTTTTKKPRVSTPKPATPSTDSSATTTRRPTKKPRTPRPVPRVTTKAPITRLETASPPTRIRTTTSGVPRGGEPNQRPELKNHIDRVDAWVGTYFEVKIPSDTFYDKEDTTTDKLKLTLKLREQQLVGEKSWVQFNSNSQLMYGLPDSSHVGKHEYFMHATDKGGLSAVDAFEIHVHKRPQGDKAPARFKAKFVGDPAPVVNDIHKKIALVKKLAFAFGDRNCSTVTLQNITRG
notes: domain: mucin-like domain and C-terminal domain; Tested with and without LARGE co-expression; not shown: IgG Fc portion
binding result (laminin-1 [6]): no binding
